Data on one sequence can be found in publication PMC12758282.

This data set addresses T1, RstA (Escherichia coli O157:H7 (EHEC; strain not given in the material)) (UniProt P52108).
T1 sequence: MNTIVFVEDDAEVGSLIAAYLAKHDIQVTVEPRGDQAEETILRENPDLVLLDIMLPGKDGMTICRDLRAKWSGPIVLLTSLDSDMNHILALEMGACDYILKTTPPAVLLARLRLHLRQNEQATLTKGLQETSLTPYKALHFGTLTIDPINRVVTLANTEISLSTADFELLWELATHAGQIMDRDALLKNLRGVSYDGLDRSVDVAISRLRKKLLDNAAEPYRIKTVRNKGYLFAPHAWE
The experiment in a line: EMSA.

In the case of “GTTATCGCAGGGAGCCACACAGCGTGTGTTGGACGCGACTCAGCTTTACCTTGGTGAGATTGGTTATTCACCACTGTTAACGGCCGAAGAAGAAGTTTATTTTGCGCGTCGCGCACTGCGTGGAGATGTCGCCTCTCGCCGCCGGATGATCGAGAGTAACTTGCGTCTGGTGGTAAAA (double strand) [rpoS fragment]”, the binding result is “no binding”.
